Measured values taken from PMC8497620, “Structure and inhibition of Cryptococcus neoformans sterylglucosidase to develop antifungal agents” (Nature Communications, 2021).

The substances below were run against C. neoformans Sgl1 (Cryptococcus neoformans var. grubii, UniProt J9W473) (assay: H/D exchange mass spectrometry mapping of disordered regions). Conditions: H/D exchange MS of C. neoformans Sgl1; per peptide (amino acids Start-End, Sequence); Fig S2a.
Method: HDX-MS reactions were performed in a similar manner as is outlined in previous publications. HDX reactions were conducted in a final reaction volume of 50 µL with a final Sgl1 concentration of 0.6 µM (30 pmol). Exchange was carried out in triplicate for a single time point (3 s at 4 °C). Hydrogen deuterium exchange was initiated by the addition of 48 µL of D2O buffer (100 mM NaCl (20 mM pH 6.0 Bis-Tris), 90.5% D2O (V/V) to 1 µL of protein and 1 µL of H2O. Exchange was terminated by the addition of ice-cold acidic quench buffer, resulting in a final concentration of 0.6 M guanidine-HCl and 0.9% FA post quench. Samples were immediately frozen in liquid nitrogen and stored at −80 °C. Fully deuterated samples were generated by first denaturing the protein in 2 M guanidine for 5 min at 20 °C. Following denaturing, 48 µL of D2O buffer was added to the denatured protein and allowed to incubate for 5 min at 20 °C before quenching. Samples were flash frozen and stored at −80 °C until injection onto the ultra-performance liquid chromatography (UPLC) system for proteolytic cleavage, peptide separation, and injection onto a QTOF for mass analysis.
Protein sample was rapidly thawed and injected onto a UPLC system kept in a cold box at 2 °C. The protein was run over two immobilized pepsin columns (Applied Biosystems; Porosyme 2-3131-00) and the peptides were collected onto a VanGuard Precolumn trap (Waters). The trap was eluted in line with an ACQUITY 1.7 μm particle, 100 × 1 mm^2 C18 UPLC column (Waters), using a gradient of 5–36% B (Buffer A 0.1% formic acid, Buffer B 100% acetonitrile) over 16 min. MS experiments were performed on an Impact QTOF (Bruker) and peptide identification was done by running tandem MS (MS/MS) experiments run in data-dependent acquisition mode. The resulting MS/MS dataset was analyzed using PEAKS7 (PEAKS) and a false discovery rate was set at 1% using a database of purified proteins and known contaminants. HDExaminer Software (Sierra Analytics) was used to automatically calculate the level of deuterium incorporation into each peptide. All peptides were manually inspected for correct charge state and presence of overlapping peptides. Deuteration levels were calculated using the centroid of the experimental isotope clusters, with correction for back exchange generated using the fully deuterated sample. The mass spectrometry proteomics data have been deposited to the ProteomeXchange Consortium via the PRIDE partner repository[31] with the dataset identifier PXD024981.

C. neoformans Sgl1, sequence (J9W473 entry or part of it): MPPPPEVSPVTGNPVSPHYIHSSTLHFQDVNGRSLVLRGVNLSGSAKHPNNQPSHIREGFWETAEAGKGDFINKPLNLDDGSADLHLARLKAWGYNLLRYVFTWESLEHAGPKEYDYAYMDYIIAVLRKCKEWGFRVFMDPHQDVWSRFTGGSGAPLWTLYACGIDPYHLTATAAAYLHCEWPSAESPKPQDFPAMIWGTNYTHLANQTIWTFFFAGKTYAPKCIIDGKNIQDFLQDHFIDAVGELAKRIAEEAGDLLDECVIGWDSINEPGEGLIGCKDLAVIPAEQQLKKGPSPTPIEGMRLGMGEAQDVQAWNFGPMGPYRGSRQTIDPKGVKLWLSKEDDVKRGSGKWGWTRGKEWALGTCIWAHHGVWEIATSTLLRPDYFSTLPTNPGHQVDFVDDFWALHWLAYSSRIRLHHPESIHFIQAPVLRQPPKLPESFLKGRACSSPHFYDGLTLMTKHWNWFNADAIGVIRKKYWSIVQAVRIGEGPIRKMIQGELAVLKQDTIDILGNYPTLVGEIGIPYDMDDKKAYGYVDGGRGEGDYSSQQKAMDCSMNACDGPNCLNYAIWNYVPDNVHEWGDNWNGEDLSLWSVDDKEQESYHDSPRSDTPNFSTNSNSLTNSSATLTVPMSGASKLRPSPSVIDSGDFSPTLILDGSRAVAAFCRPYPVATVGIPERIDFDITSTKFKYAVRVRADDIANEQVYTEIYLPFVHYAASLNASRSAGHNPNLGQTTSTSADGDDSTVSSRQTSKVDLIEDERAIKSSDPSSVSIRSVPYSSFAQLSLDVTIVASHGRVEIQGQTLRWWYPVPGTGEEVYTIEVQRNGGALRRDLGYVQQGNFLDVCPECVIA

In order of falling “% Deuterium incorporation, Average” value:
1. RAIKSSDPSSVSIRSVPYSSF  104.9%
2. RAIKSSDPSS  103.0%
3. STNSNSLTNSSATL  102.1%
4. STNSNSLTNSSA  102.0%
5. SRSAGHNPNLGQTTSTSADGDDSTVSSRQTSKVDL  101.7%
6. STVSSRQTSKVDL  98.6%
7. RRDLGYVQQGN  98.6%
8. VSIRSVPYSSF  97.9%
9. RSVPYSSF  93.7%
10. ASKLRPSPSV  76.0%
11. YVDGGRGEGDY  69.5%
12. LTVPMSGASKLRPSPSVIDSGD  65.2%
13. YLHCEWPSAESPKPQDFPAM  56.9%
14. PVLRQPPKLPESF  50.6%
15. WETAEAGKGDF  47.7%
16. INKPLNL  46.8%
17. IRKKYWSIVQAV  45.4%
18. RGVNLSGSAKHPNNQPSH  44.0%
19. VQRNGGAL  39.7%
20. IDSGDFSPTL  36.2%
21. DAIGVIRKKYWSIVQA  36.2%
22. IQAPVLRQPPKLPESF  36.0%
23. NYVPDNVHEWGDNW  32.4%
24. IATSTLLRPDYFSTLPTNPGHQVDF  31.3%
25. PVTGNPVSPHYIHSSTLHF  30.4%
26. MTKHWNWFNA  29.9%
27. AVIPAEQQLKKGPSPTPIEGM  29.8%
28. KGRACSSPHFYDGLTL  28.7%
29. IEVQRNGGAL  28.7%
30. WNFGPMGPYRGSRQTIDPKGVKL  28.6%
31. LAVIPAEQQLKKGPSPTPIEG  28.2%
32. LAVIPAEQQLKKGPSPTPIEGM  28.2%
33. DDKKAYGYVDGGRGEGDYSSQQKAMD  28.0%
34. ILGNYPTL  27.3%
35. INKPLNLDDGSADL  26.9%
36. DVQAWNFGPMGPYRGSRQTIDPKGVKL  26.1%
37. VTIVASHGRVEIQGQTL  23.2%
38. AVLKQDTID  23.0%
39. VTIVASHGRVEIQGQTLRWWYPVPGTGEE  22.0%
40. DVTIVASHGRVEIQGQTLRWWYPVPGTGE  20.6%
41. VGEIGIPYDMDDKKAYGYVDGGRGEGDYSSQQKAMD  19.4%
42. VTIVASHGRVEIQGQTLRWWYPVPGTGEEV  18.9%
43. AVRVRADDIANE  16.0%
44. YAIWNYVPDNVHE  15.0%
45. SINEPGEGL  13.9%
46. TIDPKGVKL  7.9%
47. DITSTKF  7.2%
48. WESLEHAGPKEYD  6.6%
49. SLEHAGPKEYDYA  6.0%
50. VGELAKRIAEEAGDL  5.8%
51. RVFMDPHQDV  5.4%
52. TWESLEHAGPKEYD  5.0%
53. YTHLANQ  4.9%
54. WALHWLAY  4.9%
55. FCRPYPVAT  4.6%
56. RVFMDPHQDVWSRF  4.4%
57. DITSTKFKYAVRVRADD  4.2%
58. CVIGWDSINEPGEGLIGCKDL  4.2%
59. WALGTCI  3.3%
60. DITSTKFKYAVRVRA  3.2%
61. AKRIAEE  1.8%
62. CIWAHHGVWE  1.8%
63. WAHHGVWE  1.5%
64. ANQTIWTF  -1.6%
